Source: patent CN111875704A (BAI XIANHONG, dated 2020)

Columns and labels:
[1] = target: T1, 带有His6标签的EGFR胞外区蛋白 (EGFR extracellular domain with His6 tag) (UniProt P00533 25-645, limits assumed); assay: SPR, BIACORE X100 PLUS; ratio of KD against the reference mR3
T1 construct: extracellular domain; also called EGFR保外区蛋白; 抗原; not shown: His6 tag

[2] = target: T1, 带有His6标签的EGFR胞外区蛋白 (EGFR extracellular …); assay: monoclonal scFv-phage ELISA on coated antigen at 1 μg/ml, Anti-M13 HRP, OD450

Row | Binder | fold improvement of affinity against mR3 [1] | binding result [2]
1 | 24H7 全长抗体 (full-length anti-EGFR antibody, IgG1/kappa) (antibody, V domains shown, also called 全长24H7抗体) VH: QVQLQQPGAELVKPGASVKLSCKASGYTFTNYYIYWFKQRPGQGLEWIGGINPTSGGSNFNEKFKTKATLTVDESSTTAYMQLSSLTSEDSAVYYCTRQGLWFDSDGRGFDFWGQGTTLTVSS VL: DVLMTQIPLSLPVSLGDQASISCRSSQNIVHSNGNTYLDWYLQKPGQSPNLLIYKVSNRFSGVPDRFRGSGSGTDFTLKISRVEAEDLGVYYCFQYSHVPWTFGGGTKLEIKR | 10 倍 | 
2 | 24H7 scFv (单克隆scFv噬菌体抗体) (scFv, The phage coat protein fusion is not described) scFv: QVQLQQPGAELVKPGASVKLSCKASGYTFTNYYIYWFKQRPGQGLEWIGGINPTSGGSNFNEKFKTKATLTVDESSTTAYMQLSSLTSEDSAVYYCTRQGLWFDSDGRGFDFWGQGTTLTVSSGGGGSGGGGSGGGGSDVLMTQIPLSLPVSLGDQASISCRSSQNIVHSNGNTYLDWYLQKPGQSPNLLIYKVSNRFSGVPDRFRGSGSGTDFTLKISRVEAEDLGVYYCFQYSHVPWTFGGGTKLEIKRGQAGQHHHHHH |  | binds
